Test results from patent US7838249 (BOARD OF REGENTS OF THE UNIVERSITY OF OKLAHOMA, dated 2010).

Assays:
[1] = target: TrkA (high-affinity NGF receptor), expressed in PC12 cells from pBI/TrkA; assay: cell-based or functional assay
GST-Rabex-5(135-399) = target: T1, GST-Rabex-5(135-399) (Bos taurus, UniProt O18973 135-399); assay: GST pull-down, SDS-PAGE, Coomassie staining
T1 construct: Immobilized on glutathione Sepharose-4B; also called the GEF domain itself
Experimental: The final concentration of each protein was <2 μM for detection of specific binding. The resins were subsequently washed three times with phosphate-buffered saline (PBS) and resuspended in 20 μl of SDS sample buffer. The samples were subjected to 20% SDS-PAGE analysis, and the proteins were visualized by Coomassie brilliant blue staining.
The bound proteins were analyzed by SDS-PAGE and visualized by Coomassie blue staining. […] Molecular mass standards (in kilodaltons) are indicated on the left of the panel.

T1 sequence (O18973 other isoform, or with tags, fused parts or gaps limits assumed): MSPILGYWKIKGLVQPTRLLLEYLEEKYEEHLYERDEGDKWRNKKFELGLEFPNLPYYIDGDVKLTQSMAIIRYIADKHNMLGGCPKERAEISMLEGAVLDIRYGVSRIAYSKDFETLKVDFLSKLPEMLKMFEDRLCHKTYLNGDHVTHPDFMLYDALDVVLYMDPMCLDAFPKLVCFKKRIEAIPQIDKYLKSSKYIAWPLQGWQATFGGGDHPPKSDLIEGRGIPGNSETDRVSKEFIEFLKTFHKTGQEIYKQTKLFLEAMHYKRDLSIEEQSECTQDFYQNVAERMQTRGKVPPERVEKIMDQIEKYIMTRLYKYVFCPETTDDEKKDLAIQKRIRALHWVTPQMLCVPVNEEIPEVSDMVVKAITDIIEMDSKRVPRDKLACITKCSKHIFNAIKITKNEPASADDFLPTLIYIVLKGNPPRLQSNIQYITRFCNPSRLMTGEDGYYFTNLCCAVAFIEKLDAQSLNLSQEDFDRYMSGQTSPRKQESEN
Chain of TrkA (high-affinity NGF receptor), expressed in PC12 cells from pBI/TrkA (P35739 33-799): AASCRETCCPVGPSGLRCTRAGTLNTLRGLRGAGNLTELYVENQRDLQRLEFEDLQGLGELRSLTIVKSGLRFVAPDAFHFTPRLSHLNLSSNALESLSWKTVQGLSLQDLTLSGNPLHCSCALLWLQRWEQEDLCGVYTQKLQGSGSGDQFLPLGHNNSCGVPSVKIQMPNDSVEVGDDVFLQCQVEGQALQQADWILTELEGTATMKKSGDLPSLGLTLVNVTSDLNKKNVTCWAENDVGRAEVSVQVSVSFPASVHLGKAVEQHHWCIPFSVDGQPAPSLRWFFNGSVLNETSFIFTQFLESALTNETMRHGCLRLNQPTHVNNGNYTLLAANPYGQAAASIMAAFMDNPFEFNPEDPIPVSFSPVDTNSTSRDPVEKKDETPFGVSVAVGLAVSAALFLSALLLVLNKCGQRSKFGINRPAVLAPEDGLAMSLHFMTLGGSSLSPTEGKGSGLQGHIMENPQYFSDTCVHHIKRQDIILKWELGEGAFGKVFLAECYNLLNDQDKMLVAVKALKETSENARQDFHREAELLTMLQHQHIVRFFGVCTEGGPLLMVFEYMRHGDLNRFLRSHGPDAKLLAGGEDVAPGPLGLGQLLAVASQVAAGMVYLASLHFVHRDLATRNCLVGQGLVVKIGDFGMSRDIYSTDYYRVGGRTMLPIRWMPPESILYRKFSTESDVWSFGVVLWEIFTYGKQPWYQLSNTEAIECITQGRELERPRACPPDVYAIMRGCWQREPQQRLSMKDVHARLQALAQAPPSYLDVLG

## Myc-tagged RabGAP5-C (residues 441-749) (from UniProt F1LQU9 454-763)
[1]
  NGF-mediated neurite outgrowth (percentage of differentiated PC12 cells): 20%

B1: 6-His-Rabaptin-5(551-862) (other)
chain: HHHHHHAETRDQVKKLQLMLRQANDQLEKTMKDKQELEDFIKQSSEDSSHQISALVLRAQASEILLEELQQGLSQAKRDVQEQMAVLMQSREQVSEELVRLQKDNDSLQGKHSLHVSLQQAEDFILPDTTEALRELVLKYREDIINVRTAADHVEEKLKAEILFLKEQIQAEQCLKENLEETLQLEIENCKEEIASISSLKAELERIKVEKGQLESTLREKSQQLESLQEIKISLEEQLKKETAAKATVEQLMFEEKNKAQRLQTELDVSEQVQRDFVKLSQTLQVQLERIRQADSLERIRAILNDTKLTDINQLPET
GST-Rabex-5(135-399)
  binding result: no binding

B2: 6-His-Rabaptin-5(551-661) (other)
chain: HHHHHHAETRDQVKKLQLMLRQANDQLEKTMKDKQELEDFIKQSSEDSSHQISALVLRAQASEILLEELQQGLSQAKRDVQEQMAVLMQSREQVSEELVRLQKDNDSLQGKHSLHVS
notes: Purified from E. coli BL21(DE3)
GST-Rabex-5(135-399)
  binding result: no binding
